In the supplement of paper PMC7877785:
± gives the uncertainty stated by the source.

Experiment: self-splicing fitness, log relative to wild type (ln ratio); higher = more splicing; Tetrahymena group I intron in knt gene, E. coli kanamycin selection, DiMSum; sequences stand for … in CUCUCU…GGAGGGAAAAGUUAUCAGGCAUGCACCUGGUAGCUAGUCUUUAAACCAAUAGAUUGCAUCGGUUUAAAAGGCAAGACCGUCAAAUUGCGGGAAAGGGGUCAACAGCCGUUCAGUACCAAGUCUCAGGGGAAACUUUGAGAUGGCCUUGCAAAGGGUAUGGUAAUAAGCUGACGGACAUGGUCCUAACCACGCAGCCAAGUCCUAAGUCAACAGAUCUUCUGUUGAUAUGGAUGCAGUUCACAGACUAAAUGUCGGUCGGGGAAGAUGUAUUCUUCUCAUAAGAUAUAGUCGGACCUCUCCUUAAUGGGAGCUAGCGGAUGAAGUGAUGCAACACUGGAGCCGCUGGGAACUAAUUUGUAUGCGAAAGUAUAUUGAUUAGUUUUGGAGUACUCGUGGUCG
Summary of the method: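 A randomised library covering all eight P1ex-region intron nucleotides was built with the intron in the knt kanamycin-resistance gene on pET-22b(+) and held in E. coli BL21(DE3). Cells were grown overnight at 37°C or 30°C on LB agar, with or without 25 μg/mL kanamycin, plus 100 μg/mL carbenicillin, 50 μM IPTG and 0.2% rhamnose, and pooled colonies were amplicon-sequenced on an Illumina HiSeq 2500. DiMSum fitness is the error-weighted combination of wild-type-normalised replicate fold changes, kanamycin versus none.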

| Sequence | self-splicing fitness (ln) (30 °C) | self-splicing fitness (ln) (37 °C) |
| --- | --- | --- |
| GUAAAGCAAUAUUACGCACU | 0.0854 ± 0.099 | -0.289 ± 0.12 |
| UUUGAGCAAUAUUACGUACC | -2.34 ± 0.44 | -2.3 ± 0.42 |
| UACAAGCAAUAUUACGGGUA | -1.13 ± 0.072 | -0.839 ± 0.077 |
| CAGGAGCAAUAUUACGUCGG | -0.734 ± 0.099 | -0.66 ± 0.13 |
| AGGCAGCAAUAUUACGUAAA | -2 ± 0.085 | -0.673 ± 0.099 |
| GUUUAGCAAUAUUACGAUCC | -0.72 ± 0.26 | -0.434 ± 0.32 |
| GGUGAGCAAUAUUACGACCU | -2.12 ± 0.26 | -2.52 ± 0.49 |
| AAGCAGCAAUAUUACGAAUU | -0.851 ± 0.069 | 0.12 ± 0.099 |
| GAACAGCAAUAUUACGAUAG | -3.6 ± 0.14 | -0.972 ± 0.094 |
| CUUAAGCAAUAUUACGGUUC | -4.11 ± 0.19 | -3.1 ± 0.26 |
| AGAGAGCAAUAUUACGCAGA | -1.67 ± 0.22 | – |
| CCCAAGCAAUAUUACGUUUG | -4.1 ± 0.21 | -2.82 ± 0.21 |
| CAAGAGCAAUAUUACGCGUC | -2.16 ± 0.17 | -2.23 ± 0.23 |
| GCCCAGCAAUAUUACGAUAC | -2.24 ± 0.086 | -0.313 ± 0.094 |
| GCUCAGCAAUAUUACGUAUA | -1.73 ± 0.096 | -0.338 ± 0.085 |
| ACACAGCAAUAUUACGGGGA | -2.3 ± 0.077 | -0.729 ± 0.067 |
| CGGAAGCAAUAUUACGCAGG | -1.73 ± 0.095 | -1.57 ± 0.11 |
| GCUUAGCAAUAUUACGCAGU | -2.45 ± 0.25 | -3.16 ± 0.47 |
| GUAUAGCAAUAUUACGAGGC | -2.1 ± 0.33 | -2.18 ± 0.47 |
| CACCAGCAAUAUUACGUGAC | -4.86 ± 0.26 | -2.34 ± 0.21 |
| GGCCAGCAAUAUUACGUUUC | -1.4 ± 0.095 | -0.362 ± 0.089 |
| CAACAGCAAUAUUACGCAAU | -2.87 ± 0.16 | -1.87 ± 0.15 |
| UUUAAGCAAUAUUACGCCUC | – | -0.852 ± 0.36 |
| ACCGAGCAAUAUUACGUGAU | -3.36 ± 0.13 | -2.06 ± 0.12 |
| ACUAAGCAAUAUUACGCCAC | -2.45 ± 0.38 | – |

| Sequence | self-splicing fitness (ln) (30 °C) | self-splicing fitness (ln) (37 °C) |
| --- | --- | --- |
| CCGUAGCAAUAUUACGAGUA | – | -2.04 ± 0.22 |
| UACCAGCAAUAUUACGUGCC | -3.35 ± 0.24 | -0.584 ± 0.19 |
| CGAAAGCAAUAUUACGCCAG | -0.884 ± 0.14 | -0.307 ± 0.21 |
| GGGUAGCAAUAUUACGUAGC | -0.707 ± 0.15 | -0.648 ± 0.16 |
| GCUGAGCAAUAUUACGCGGU | -3.6 ± 0.21 | -2.02 ± 0.3 |
| GGGUAGCAAUAUUACGUGUU | -1.37 ± 0.097 | -0.992 ± 0.11 |
| CGGCAGCAAUAUUACGACUC | -0.739 ± 0.097 | -0.759 ± 0.1 |
| CGUAAGCAAUAUUACGCCAC | -2.55 ± 0.42 | -0.936 ± 0.3 |
| AGCUAGCAAUAUUACGCGGC | -3.24 ± 0.32 | -1.99 ± 0.38 |
| GGGUAGCAAUAUUACGAAUA | -0.00785 ± 0.18 | -0.878 ± 0.18 |
| GAGCAGCAAUAUUACGAAUG | -3.81 ± 0.2 | -1.94 ± 0.14 |
| GUACAGCAAUAUUACGUUUA | -2.62 ± 0.15 | -1.89 ± 0.11 |
| GGUUAGCAAUAUUACGCUUG | -2.32 ± 0.15 | -1.82 ± 0.2 |
| AUUGAGCAAUAUUACGCACA | -1.81 ± 0.16 | -1.41 ± 0.24 |
| GCACAGCAAUAUUACGUACU | -1.2 ± 0.069 | -1.2 ± 0.094 |
| UAGAAGCAAUAUUACGCCGU | -2.41 ± 0.23 | -2.68 ± 0.36 |
| UUUGAGCAAUAUUACGGAUA | -3.12 ± 0.43 | -2.36 ± 0.45 |
| AACCAGCAAUAUUACGCGGA | -2.05 ± 0.093 | -0.49 ± 0.072 |
| UCGCAGCAAUAUUACGAUUC | -3.5 ± 0.48 | – |
| AACUAGCAAUAUUACGGUCG | -0.193 ± 0.062 | 0.193 ± 0.085 |
| UCUCAGCAAUAUUACGAACU | -1.75 ± 0.17 | -1.34 ± 0.21 |
| GGACAGCAAUAUUACGUCCG | -2.1 ± 0.12 | -1.89 ± 0.18 |
| GAGAAGCAAUAUUACGAAGA | -1.43 ± 0.28 | -1.67 ± 0.26 |
| GGUGAGCAAUAUUACGAUUU | -1.35 ± 0.23 | -0.612 ± 0.25 |
